Measurements from paper PMC2893164, “Structural Basis of Gate-DNA Breakage and Resealing by Type II Topoisomerases” (PLoS ONE, 2010).

B1: S. pneumoniae ParC breakage-reunion domain (ParC55, residues 1-488) (domain or fragment, Streptococcus pneumoniae, UniProt P72525 1-488, looked up)
chain: MSNIQNMSLEDIMGERFGRYSKYIIQDRALPDIRDGLKPVQRRILYSMNKDSNTFDKSYRKSAKSVGNIMGNFHPHGDSSIYDAMVRMSQNWKNREILVEMHGNNGSMDGDPPAAMRYTEARLSEIAGYLLQDIEKKTVPFAWNFDDTEKEPTVLPAAFPNLLVNGSTGISAGYATDIPPHNLAEVIDAAVYMIDHPTAKIDKLMEFLPGPDFPTGAIIQGRDEIKKAYETGKGRVVVRSKTEIEKLKGGKEQIVIIEIPYEINKANLVKKIDDVRVNNKVAGIAEVRDESDRDGLRIAIELKKDANTELVLNYLFKYTDLQINYNFNMVAIDNFTPRQVGIVPILSSYIAHRREVILARSRFDKEKAEKRLHIVEGLIRVISILDEVIALIRASENKADAKENLKVSYDFTEEQAEAIVTLQLYRLTNTDVVVLQEEEAELREKIAMLAAIIGDERTMYNLMKKELREVKKKFATPRLSSLEDTAKA
modifications: Tyr 118 linked covalently to the 5' phosphate end of the cleaved DNA (in the cleaved complexes; not in the resealed complex)
notes: Topoisomerase IV subunit ParC, Streptococcus pneumoniae, breakage-reunion domain, residues 1-488; also called topoisomerase IV subunit ParC; source: E. coli, over-expressed, purified as described previously

Columns and labels:
[1] = target: the molecule itself; experiment: crystal structure; ParC55 and ParE30 (equimolar, 4 mg/ml) co-crystallised with the 34-bp E-site DNA (1:1:1.2) and quinazolinedione PD 0305970, 20 mM MgCl2, pH 7.0; 3.1 A; the same crystals back-soaked and soaked with levofloxacin (2.9 A), EDTA (3.3 A) or EDTA then Mg2+ (3.5 A)
[2] = target: B1; experiment: as above; conditions: both partners purified

Binder	stoichiometry N [1]	binding result [2]
B1	2	
S. pneumoniae ParE TOPRIM domain (ParE30, residues 404-647) (domain or fragment, Streptococcus pneumoniae, UniProt Q59961 404-647, looked up, Topoisomerase IV subunit ParE, Streptococcus pneumoniae, TOPRIM domain, residues 404-647; also called topoisomerase IV subunit ParE; source: E. coli, over-expressed, purified as described previously) KNKKDKGLLSGKLTPAQSKNPAKNELYLVEGDSAGGSAKQGRDRKFQAILPLRGKVVNTAKAKMADILKNEEINTMIYTIGAGVGADFSIEDANYDKIIIMTDADTDGAHIQTLLLTFFYRYMRPLVEAGHVYIALPPLYKMSKGKGKKEEVAYAWTDGELEELRKQFGKGATLQRYKGLGEMNADQLWETTMNPETRTLIRVTIEDLARAERRVNVLMGDKVEPRRKWIEDNVKFTLEETTVF		binds
